In the assay the target is biotinylated SARS-CoV-2-S1 (SINO BIOLOGICAL #40591-V08H-B) (SARS-CoV-2). Put plainly: SPR. On the technique in general: In SPR one partner is held on a chip, and binding of the other changes the refractive index at the surface.

Drawing on article PMC8828381, this text covers Kd for one substance.

Usually Kd stands for a measure of binding affinity in units of concentration. The substance “integrin α5β1 extracellular domain with flag tag on α5 and His tag on β1 (from UniProt P08648;P05556) (complex)” yielded a Kd of 31 nM.
